Test results reported in US20230340152A1 (published 2023).
Changes are numbered by the printed parent chain. Names and notes keep the numbering of the source.

Key:
[1] = molecular target: T1, Cynomolgus CD73 on MK-1 cells (cynomolgus, UniProt A0A2K5V5U7 27-549); assay: flow cytometry on cells
T1 construct: whole, on cells; also called MK-1 (cyno)
T1 sequence: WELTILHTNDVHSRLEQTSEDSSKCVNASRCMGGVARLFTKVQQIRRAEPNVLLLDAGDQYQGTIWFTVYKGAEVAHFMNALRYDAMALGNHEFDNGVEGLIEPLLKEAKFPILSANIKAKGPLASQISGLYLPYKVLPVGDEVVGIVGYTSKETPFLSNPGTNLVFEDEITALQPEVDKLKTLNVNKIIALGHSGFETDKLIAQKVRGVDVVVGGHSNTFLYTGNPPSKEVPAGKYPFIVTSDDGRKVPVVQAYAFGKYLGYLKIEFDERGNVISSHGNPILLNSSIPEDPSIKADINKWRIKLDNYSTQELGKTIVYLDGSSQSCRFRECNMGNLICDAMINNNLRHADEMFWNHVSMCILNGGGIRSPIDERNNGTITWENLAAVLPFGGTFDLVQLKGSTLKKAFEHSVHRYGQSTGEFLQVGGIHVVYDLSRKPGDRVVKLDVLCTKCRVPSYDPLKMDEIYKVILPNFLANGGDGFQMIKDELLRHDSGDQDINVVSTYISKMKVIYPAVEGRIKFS

[2] = molecular target: T2, CD73 construct with chicken N- and C-terminal domain sequence with human V144 and N185 knocked in (chicken; human); assay: SPR, MEDI9447 dilutions from 5 nM to 0.3 nM
T2 chain: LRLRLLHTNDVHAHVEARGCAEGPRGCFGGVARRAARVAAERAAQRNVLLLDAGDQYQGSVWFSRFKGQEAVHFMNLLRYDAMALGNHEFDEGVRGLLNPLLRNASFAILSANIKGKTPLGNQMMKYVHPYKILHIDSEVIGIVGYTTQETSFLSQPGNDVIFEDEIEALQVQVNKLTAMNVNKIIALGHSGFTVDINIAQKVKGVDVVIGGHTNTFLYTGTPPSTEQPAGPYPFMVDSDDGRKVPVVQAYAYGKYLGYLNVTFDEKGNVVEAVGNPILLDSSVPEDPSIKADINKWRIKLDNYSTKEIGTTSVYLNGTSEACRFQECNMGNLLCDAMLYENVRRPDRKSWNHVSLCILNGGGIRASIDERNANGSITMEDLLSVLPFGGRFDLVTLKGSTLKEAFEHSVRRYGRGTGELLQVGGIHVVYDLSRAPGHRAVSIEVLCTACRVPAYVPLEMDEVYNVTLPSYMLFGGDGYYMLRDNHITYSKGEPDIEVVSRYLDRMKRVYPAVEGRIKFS
Text: FIG. 24C depicts a close-up of the epitope residues located within the N-terminal domain of CD73. The most important residues for binding are shown highlighted and less impactful positions (Y135, K136, and N187) are in pink. The HDX interface is overlaid in blue. FIG. 24D depicts a surface representation showing that the epitope forms a near contiguous binding surface. FIG. 24E depicts a crystal structure of the open conformation of CD73 showing the position of the epitope at the apical, lateral surface of the N-terminal domain. […] In all crystal structures, the CD73 N-terminal domain, linker region, and C-terminal domain are depicted in yellow, orange, and blue, respectively.
Binding of MEDI9447 to wild-type and mutant CD73 proteins was measured by surface plasmon resonance (SPR) using a ProteOn instrument (BioRad). CD73 crude cell supernatant protein samples were diluted to 3 µg/ml in PBS, 0.005% Tween-20, pH 7.4 (BioRad) and immobilized to ~400 RU on a HTG tris-NTA sensor chip (BioRad) pre-activated with 10 mM NiSO₄, 10 mM MES, pH 6.0 (BioRad). […] Sensorgrams were recorded by flowing two-fold dilutions of MEDI9447 prepared in PBS, 0.005% Tween-20, pH 7.4, ranging from 5 nM to 0.31 nM. […] Antibody binding was measured at a flow rate of 100 µL/min with a 3 min association phase and 20 min dissociation phase. […] Binding kinetics were analyzed using the ProteOn data analysis software. […]

Human CD73 ECD = molecular target: T3, Human CD73 ECD (human, UniProt P21589 27-549); assay: SPR (ProteOn), antibody captured by anti-human Fc, CD73 ECD in mobile phase
T3 construct: Biotinylated in some assays; also called human CD73 extracellular domain; huCD73
T3 sequence: T1 sequence with T199M, A350T, I466V
Text: A ProteOn XPR36 instrument was used to characterize binding of MEDI9447 to human, murine, and cynomolgus CD73 ECD. MEDI9447 was affinity-captured using an anti-human Fc antibody. CD73 ECD was in the mobile phase. The association and dissociation of CD73 to MEDI9447 could be accurately described with the Langmuir 1: 1 model.

B1: MEDI9447 (antibody, human IgG1, lambda, V domains shown)
VH: EVQLLESGGGLVQPGGSLRLSCAASGFTFSSYAYSWVRQAPGKGLEWVSAISGSGGRTYYADSVKGRFTISRDNSKNTLYLQMNSLRAEDTAVYYCARLGYGRVDEWGRGTLVTVSS
VL: QSVLTQPPSASGTPGQRVTISCSGSLSNIGRNPVNWYQQLPGTAPKLLIYLDNLRLSGVPDRFSGSKSGTSASLAISGLQSEDEADYYCATWDDSHPGWTFGGGTKLTVLG
notes: Human IgG1-TM (L234F, L235E, P331S), lambda light chain; also called clone 10.3 antibody; 73combo3
In the case of B1, the Kd [1] is reported as 0.084 nM, the “fold of the KD for wild-type CD73” value [2] is reported as < 20 fold and the koff (Human CD73 ECD) is reported as 1.06e-05 s⁻¹. The kon (Human CD73 ECD) was 2.57e+06 M⁻¹ s⁻¹.
